# Patent US20150344570A1 (published 2015)
# B1: GpH7-A5/GpH7-B3 variant S324_09D/GpL16-k0 (antibody, human IgG1, kappa)
# heavy 1: not shown
# heavy 2: not shown
# light: DIVMTQSPLSLPVTPGEPASISCQASESLVHSNRNTYLHWYLQKPGQSPQLLIYKVSNRFSGVPDRFSGSGSGTDFTLKISRVEAEDVGVYYCSQNTHVPPTFGQGTKVEIERTVAAPSVFIFPPSDEQLKSGTASVVCLLNNFYPREAKVQWKVDNALQSGNSQESVTEQDSKDSTYSLSSTLTLSKADYEKHKVYACEVTHQGLSSPVTKSFNRGEC
# notes: Alteration in one H chain only; also called He Ab S324_09D
# B2: GpH7-A5/GpH7-B3 variant S324_10E/GpL16-k0 (antibody, human IgG1, kappa)
# heavy 1: not shown
# heavy 2: not shown
# light: B1 light
# notes: Alteration in one H chain only; also called He Ab S324_10E
# B3: GpH7-A5/GpH7-B3 variant S337_11K/GpL16-k0 (antibody, human IgG1, kappa)
# heavy 1: not shown
# heavy 2: not shown
# light: B1 light
# notes: Alteration in one H chain only; also called He Ab S337_11K
# B4: GpH7-A5/GpH7-B3 variant S337_14T/GpL16-k0 (antibody, human IgG1, kappa)
# heavy 1: not shown
# heavy 2: not shown
# light: B1 light
# notes: Alteration in one H chain only; also called He Ab S337_14T
# B5: GpH7-A5/GpH7-B3 variant S337_16H/GpL16-k0 (antibody, human IgG1, kappa)
# heavy 1: not shown
# heavy 2: not shown
# light: B1 light
# notes: Alteration in one H chain only; also called He Ab S337_16H
# B6: GpH7-A5/GpH7-B3 variant S337_18N/GpL16-k0 (antibody, human IgG1, kappa)
# heavy 1: not shown
# heavy 2: not shown
# light: B1 light
# notes: Alteration in one H chain only; also called He Ab S337_18N
# B7: GpH7-A5/GpH7-B3 variant T335_01G/GpL16-k0 (antibody, human IgG1, kappa)
# heavy 1: not shown
# heavy 2: not shown
# light: B1 light
# notes: Alteration in one H chain only; also called He Ab T335_01G
# B8: GpH7-A5/GpH7-B3 variant T335_02A/GpL16-k0 (antibody, human IgG1, kappa)
# heavy 1: not shown
# heavy 2: not shown
# light: B1 light
# notes: Alteration in one H chain only; also called He Ab T335_02A
# B9: GpH7-A5/GpH7-B3 variant T335_13S/GpL16-k0 (antibody, human IgG1, kappa)
# heavy 1: not shown
# heavy 2: not shown
# light: B1 light
# notes: Alteration in one H chain only; also called He Ab T335_13S
# B10: GpH7-A5/GpH7-B3 variant Y296_02A/GpL16-k0 (antibody, human IgG1, kappa)
# heavy 1: not shown
# heavy 2: not shown
# light: B1 light
# notes: Alteration in one H chain only; also called He Ab Y296_02A
# B11: GpH7-A5/GpH7-B3 variant Y296_03V/GpL16-k0 (antibody, human IgG1, kappa)
# heavy 1: not shown
# heavy 2: not shown
# light: B1 light
# notes: Alteration in one H chain only; also called He Ab Y296_03V
# B12: GpH7-A5/GpH7-B3 variant Y296_07I/GpL16-k0 (antibody, human IgG1, kappa)
# heavy 1: not shown
# heavy 2: not shown
# light: B1 light
# notes: Alteration in one H chain only; also called He Ab Y296_07I
# B13: GpH7-A5/GpH7-B3 variant Y296_08L/GpL16-k0 (antibody, human IgG1, kappa)
# heavy 1: not shown
# heavy 2: not shown
# light: B1 light
# notes: Alteration in one H chain only; also called He Ab Y296_08L
# B14: GpH7-A5/GpH7-B3 variant Y300_07I/GpL16-k0 (antibody, human IgG1, kappa)
# heavy 1: not shown
# heavy 2: not shown
# light: B1 light
# notes: Alteration in one H chain only; also called He Ab Y300_07I
# B15: GpH7-A5/GpH7-B3 variant Y300_16H/GpL16-k0 (antibody, human IgG1, kappa)
# heavy 1: not shown
# heavy 2: not shown
# light: B1 light
# notes: Alteration in one H chain only; also called He Ab Y300_16H
# B16: GpH7-A5/GpH7-B3 variant E269_01G/GpL16-k0 (antibody, human IgG1, kappa)
# heavy 1: not shown
# heavy 2: not shown
# light: B1 light
# notes: heterodimerized anti-glypican-3 IgG1; alteration in one H chain only; also called He Ab
# B17: GpH7-A5/GpH7-B3 variant D265_10E/GpL16-k0 (antibody, human IgG1, kappa)
# heavy 1: not shown
# heavy 2: not shown
# light: B1 light
# notes: as for B16
# B18: GpH7-A5/GpH7-B3 variant D265_11K/GpL16-k0 (antibody, human IgG1, kappa)
# heavy 1: not shown
# heavy 2: not shown
# light: B1 light
# notes: as for B16
# B19: GpH7-A5/GpH7-B3 variant D265_12R/GpL16-k0 (antibody, human IgG1, kappa)
# heavy 1: not shown
# heavy 2: not shown
# light: B1 light
# notes: as for B16
# B20: GpH7-A5/GpH7-B3 variant D265_13S/GpL16-k0 (antibody, human IgG1, kappa)
# heavy 1: not shown
# heavy 2: not shown
# light: B1 light
# notes: as for B16
# B21: GpH7-A5/GpH7-B3 variant D265_14T/GpL16-k0 (antibody, human IgG1, kappa)
# heavy 1: not shown
# heavy 2: not shown
# light: B1 light
# notes: as for B16
# B22: GpH7-A5/GpH7-B3 variant D265_16H/GpL16-k0 (antibody, human IgG1, kappa)
# heavy 1: not shown
# heavy 2: not shown
# light: B1 light
# notes: as for B16
# B23: GpH7-A5/GpH7-B3 variant D265_18N/GpL16-k0 (antibody, human IgG1, kappa)
# heavy 1: not shown
# heavy 2: not shown
# light: B1 light
# notes: as for B16
# B24: GpH7-A5/GpH7-B3 variant D265_19Q/GpL16-k0 (antibody, human IgG1, kappa)
# heavy 1: not shown
# heavy 2: not shown
# light: B1 light
# notes: as for B16
# B25: GpH7-A5/GpH7-B3 variant E269_02A/GpL16-k0 (antibody, human IgG1, kappa)
# heavy 1: not shown
# heavy 2: not shown
# light: B1 light
# notes: as for B16
# B26: GpH7-A5/GpH7-B3 variant E269_03V/GpL16-k0 (antibody, human IgG1, kappa)
# heavy 1: not shown
# heavy 2: not shown
# light: B1 light
# notes: as for B16
# B27: GpH7-A5/GpH7-B3 variant E269_04F/GpL16-k0 (antibody, human IgG1, kappa)
# heavy 1: not shown
# heavy 2: not shown
# light: B1 light
# notes: as for B16
# B28: GpH7-A5/GpH7-B3 variant E269_06M/GpL16-k0 (antibody, human IgG1, kappa)
# heavy 1: not shown
# heavy 2: not shown
# light: B1 light
# notes: as for B16
# B29: GpH7-A5/GpH7-B3 variant E269_07I/GpL16-k0 (antibody, human IgG1, kappa)
# heavy 1: not shown
# heavy 2: not shown
# light: B1 light
# notes: as for B16
# B30: GpH7-A5/GpH7-B3 variant E269_08L/GpL16-k0 (antibody, human IgG1, kappa)
# heavy 1: not shown
# heavy 2: not shown
# light: B1 light
# notes: as for B16
# B31: GpH7-A5/GpH7-B3 variant E269_11K/GpL16-k0 (antibody, human IgG1, kappa)
# heavy 1: not shown
# heavy 2: not shown
# light: B1 light
# notes: as for B16
# B32: GpH7-A5/GpH7-B3 variant E269_12R/GpL16-k0 (antibody, human IgG1, kappa)
# heavy 1: not shown
# heavy 2: not shown
# light: B1 light
# notes: as for B16
# B33: GpH7-A5/GpH7-B3 variant E269_13S/GpL16-k0 (antibody, human IgG1, kappa)
# heavy 1: not shown
# heavy 2: not shown
# light: B1 light
# notes: as for B16
# B34: GpH7-A5/GpH7-B3 variant E269_14T/GpL16-k0 (antibody, human IgG1, kappa)
# heavy 1: not shown
# heavy 2: not shown
# light: B1 light
# notes: as for B16
# B35: GpH7-A5/GpH7-B3 variant E269_15Y/GpL16-k0 (antibody, human IgG1, kappa)
# heavy 1: not shown
# heavy 2: not shown
# light: B1 light
# notes: as for B16
# B36: GpH7-A5/GpH7-B3 variant E269_16H/GpL16-k0 (antibody, human IgG1, kappa)
# heavy 1: not shown
# heavy 2: not shown
# light: B1 light
# notes: as for B16
# B37: GpH7-A5/GpH7-B3 variant L328_11K/GpL16-k0 (antibody, human IgG1, kappa)
# heavy 1: not shown
# heavy 2: not shown
# light: B1 light
# notes: He Ab; mutation in the GpH7-B3 chain only; also called He Ab
# B38: GpH7-A5/GpH7-B3 variant L328_12R/GpL16-k0 (antibody, human IgG1, kappa)
# heavy 1: not shown
# heavy 2: not shown
# light: B1 light
# notes: as for B37
# Molecular target: T1, FcγRIa (human, UniProt P12314 16-292)
# T1 construct: extracellular domain; also called FcgRI; FcgRIa; not shown: His tag attached to the C terminus
# Assay: SPR (Biacore), relative binding; control HeCon Ab GpH7-A5/GpH7-B3/GpL16-k0
# T1 sequence (P12314 16-292): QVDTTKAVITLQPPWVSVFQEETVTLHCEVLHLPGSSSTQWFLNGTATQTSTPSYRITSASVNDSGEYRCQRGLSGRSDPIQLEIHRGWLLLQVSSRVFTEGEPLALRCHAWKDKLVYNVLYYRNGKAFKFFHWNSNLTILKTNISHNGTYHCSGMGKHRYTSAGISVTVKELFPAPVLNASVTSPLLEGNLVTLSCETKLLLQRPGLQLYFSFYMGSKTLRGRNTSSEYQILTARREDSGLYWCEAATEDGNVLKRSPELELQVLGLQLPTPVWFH
row,Binder,He/Con_1a
1,B1,104 % of control (=100)
2,B2,105 % of control (=100)
3,B3,104 % of control (=100)
4,B4,105 % of control (=100)
5,B5,105 % of control (=100)
6,B6,105 % of control (=100)
7,B7,104 % of control (=100)
8,B8,103 % of control (=100)
9,B9,105 % of control (=100)
10,B10,103 % of control (=100)
11,B11,104 % of control (=100)
12,B12,104 % of control (=100)
13,B13,104 % of control (=100)
14,B14,108 % of control (=100)
15,B15,111 % of control (=100)

# Molecular target: T2, FcγRIIa R (human, UniProt P12318 34-217)
# T2 construct: extracellular domain; also called FcgRIIa R type; 2aR
# T2 sequence (looked up): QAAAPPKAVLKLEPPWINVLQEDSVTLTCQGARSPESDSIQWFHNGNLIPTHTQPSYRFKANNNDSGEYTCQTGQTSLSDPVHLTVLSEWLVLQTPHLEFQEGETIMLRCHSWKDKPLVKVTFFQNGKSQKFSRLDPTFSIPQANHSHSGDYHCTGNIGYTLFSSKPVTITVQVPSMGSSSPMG
# Assay: SPR (Biacore); He/Con_2aR divided by He/Con_2b (FcγRIIa R over FcγRIIb)
row,Binder,He_2aR/2b (IIaR/IIb) [ratio]
1,B16,1.27
2,B17,1.52
3,B18,2.26
4,B19,2.15
5,B20,1.81
6,B21,1.61
7,B22,1.51
8,B23,2.02
9,B24,1.64
10,B25,1.31
11,B26,1.3
12,B27,1.29
13,B28,1.32
14,B29,1.34
15,B30,1.33
16,B31,2.14
17,B32,1.39
18,B33,1.28
19,B34,1.3
20,B35,1.29
21,B36,1.32

# Molecular target: T3, FcγRIa (human, UniProt P12314 16-292)
# T3 construct: extracellular domain; also called FcgRI; CD64
# Assay: ratio of He/Con_1a to He/Con_2b (FcγRIa over FcγRIIb), SPR
# Protocol: (§1) The heterodimerized antibodies He Abs in which one of the H chains was introduced with an alteration were assayed for their binding activities to each activating FcγR and inhibitory FcγR according to the method described in Example 4. […] The activating FcγRs in FIGS. 26, 27, 28, and 29 are FcγRIa, FcγRIIa (R), FcγRIIa (H), and FcγRIIIa, respectively.
# (§2) Analysis of interaction between objective antibody and the FcγR was carried out using Biacore T100 (GE Healthcare). HBS-EP+ (GE Healthcare) was used as the running buffer, and the measurement temperature was set to 25° C. Chips produced by immobilizing the antigen peptide by the amine coupling method to a Series S Sencor Chip CM5 (GE Healthcare), or alternatively, chips produced by allowing preliminarily biotinylated antigen peptides to interact with and immobilize onto a Series S Sensor Chip SA (certified) (GE Healthcare) were used. Antibodies of interest were captured onto an antigen peptide-immobilized chip, and allowed to interact to each FcγR diluted with running buffer. To regenerate and repeatedly use the chip, the antibodies captured on the chip were washed off by reacting 10 mM glycine-HCl, pH 1.5.
# T3 sequence (P12314 16-292): as the sequence (P12314 16-292) above
row,Binder,He_1a/2b (Ia/IIb)
1,B37,10.5
2,B38,8.51

# Molecular target: T4, FcγRIIb (human, UniProt P31994 43-217)
# T4 construct: extracellular domain; also called FcgRIIb; 2b
# T4 sequence (looked up): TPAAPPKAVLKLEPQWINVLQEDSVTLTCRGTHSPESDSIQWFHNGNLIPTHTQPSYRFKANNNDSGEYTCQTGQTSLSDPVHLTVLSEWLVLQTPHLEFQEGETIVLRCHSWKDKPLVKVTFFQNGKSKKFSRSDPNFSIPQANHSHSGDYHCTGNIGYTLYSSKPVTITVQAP
# Assay: SPR (Biacore), captured antibody, FcγR as analyte; relative binding, control GpH7-A5/GpH7-B3/GpL16-k0 = 100
# Protocol: as §1, §2
row,Binder,He/Con_2b [control = 100]
1,B16,51.5
2,B17,38.2
3,B18,14.9
4,B19,15
5,B20,11.3
6,B21,16
7,B22,38.3
8,B23,6.1
9,B24,33.4
10,B25,49.9
11,B26,45.1
12,B27,45
13,B28,46.7
14,B29,43.9
15,B30,42.9
16,B31,17.8
17,B32,25.2
18,B33,47.8
19,B34,50.6
20,B35,44.7
21,B36,38.5

# Molecular target: T2, FcγRIIa R
# Assay: as above
# Protocol: as §1, §2
row,Binder,He/Con_2aR [control = 100]
1,B16,65.3
2,B17,58.2
3,B18,33.7
4,B19,32.2
5,B20,20.5
6,B21,25.8
7,B22,58
8,B23,12.4
9,B24,54.8
10,B25,65.3
11,B26,58.8
12,B27,58.2
13,B28,61.7
14,B29,58.8
15,B30,57.2
16,B31,38.1
17,B32,35
18,B33,61.2
19,B34,66
20,B35,57.6
21,B36,50.7

# Molecular target: T3, FcγRIa
# Assay: SPR (Biacore), captured antibody, soluble FcγR; relative to GpH7-A5/GpH7-B3/GpL16-k0 = 100
# Protocol: as §1, §2
row,Binder,He/Con_1a
1,B37,79.2 % of control
2,B38,78.6 % of control
